Here are results for 14 molecules from US5336667A, “Method for inhibiting the ahesion of platelet with alboaggregins: platelet agonists which bind to platelet membrane glycoprotein IB” (Temple University of the Commonwealth System of Higher …, priority 1992, dated 1994).

For experiment [1], the system named is alboaggregin A (AL-A), Trimeresurus albolabris venom, SEQ ID NOS: 1, 2, 3 and 4. The experiment can be described thus: Platelet agglutination induced by AL-A in the presence of inhibitors. It counts as cell-based. The procedure:
(§1) Agglutination of platelet-rich plasma, washed platelets and fixed platelets by AL-B was performed according to the method described by Kirby, J Lab Clin. Med. 100, 963-976 (1982). Platelet agglutination was assayed at 37° C. with constant stirring at 1200 RPM in an aggregometer and the extent of light transmission change was measured after two minutes. AL-B was added to suspensions of (A) fixed washed platelets or (B) washed platelets at final concentrations of (A) 0.2, 0.4, 0.6, 0.9 and 1.7 μg/ml and (B) 0.12, 0.24 and 0.48 μg/ml, respectively. The platelet concentration was approximately 3×10^8 platelets/ml in each suspension. AL-B agglutinated both fixed platelets and washed platelets in a dose-dependent manner. Once platelets were maximally agglutinated by AL-B, addition of bovine vWF gave no further response.
All three alboaggregins agglutinated platelet rich plasma and fixed platelets directly. To induce the same amount of platelet agglutination by bovine vWF, twice as much vWF was required to obtain the same change in light transmission. […] Platelet agglutination activity of each of the alboaggregins was similar in terms of their EC50 values.
(§2) Platelet agglutination induced by AL-A or AL-B was not inhibited by EDTA (10 raM) , soybean trypsin inhibitor (0.5 mg/ml) N-ethylmaleimide, (10 raM) or PGE1 (0.35 μM).

Experiment [2] addresses T1, alboaggregin B (AL-B), Trimeresurus albolabris venom (Trimeresurus albolabris, UniProt P81115+P81116).
T1 sequence (P81115 24-156): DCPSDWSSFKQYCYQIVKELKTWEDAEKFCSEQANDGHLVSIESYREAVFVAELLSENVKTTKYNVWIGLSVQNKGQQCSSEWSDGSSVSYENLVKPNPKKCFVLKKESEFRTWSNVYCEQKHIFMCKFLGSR
T1 sequence (P81116 24-146): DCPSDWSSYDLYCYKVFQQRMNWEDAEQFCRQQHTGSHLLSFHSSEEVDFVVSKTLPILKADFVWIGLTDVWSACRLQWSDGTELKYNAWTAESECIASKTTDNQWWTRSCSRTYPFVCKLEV
Put plainly: Platelet agglutination induced by AL-B in the presence of inhibitors. In kind it is cell-based. The procedure: as §1, §2

Experiment [3] concerns the target T1, alboaggregin B (AL-B), Trimeresurus albolabris venom. The experiment can be described thus: Effect of sugars on binding of AL-B to platelets (lectin test). The settings on record: sugar at concentrations up to 5 mg/ml. The procedure: Several galactose-specific lectins that agglutinate platelets have been reported in snake venoms. Their presence can be detected by inhibition of lectin-induced agglutination by galactose or other sugars. In order to determine whether the alboaggregins function as lectins, we examined the effects of eight different sugars (lactose, galactose, galactosamine, mannosamine, glucosamine, N-acetyl glucosamine, α-methyl glucoside and α-methyl mannoside) at concentrations up to 5 mg/ml.
Binding of ^125 I-bovine vWF and 125I-alboaggregins to labeled platelets was carried out according to Kirby, J. Lab. Clin. Med. 100, 963-976 (1982). Platelets were diluted and incubated at 37° C. for at least 10 min. prior to performing binding studies. Radiolabeled proteins were diluted in Tris-saline buffer containing 1 mg/ml of BSA and preincubated with buffer or a sample to be tested for inhibitory activity. The platelet suspension (1.9×10^8 platelets/ml) was added to the radiolabeled protein (26 ng/ml) and incubated at 37° C. for different periods of time. Unlabeled AL-B (1.8 μg/ml or 8.6 μg/ml) was added to duplicate suspensions after 5 min. of incubation with ^125 I-AL-B. Platelets were separated from free ligand by centrifugation for 4 min. at 12000 g. Supernatant and pellets were counted in an […] gamma counter to determine the amount of free and platelet-bound radioactivity, respectively.

In experiment [4] the target is human platelet membrane glycoprotein Ib (human) (UniProt P07359). Put plainly: direct binding of 125I-AL-C to platelets.
Experiment [5] has the same target. The experiment can be described thus: unlabeled AL-C competing on platelets; competitor 125I-AL-A.
Experiment [6] has the same target. Put plainly: unlabeled AL-C competing on platelets; competitor 125I-AL-B.
Experiment [7] shares this target. The experiment can be described thus: unlabeled AL-C competing on platelets; competitor 125I-AL-C.
The target is the same in experiment [8]. Put plainly: unlabeled AL-C competing on platelets; competitor 125I-bovine vWF.
Experiment [9] has the same target.
Experiment [10] has the same target. The experiment can be described thus: Scatchard analysis of 125I-echicetin binding to fixed platelets.
For experiment [11] the target is unchanged. The experiment can be described thus: radioligand competition on platelets; competitor 125I-echicetin. In general terms: In a radioligand displacement assay an active substance lowers the binding of a labelled ligand.
For experiment [12] the target is unchanged. The experiment can be described thus: radioligand competition on fixed platelets; competitor 125I-bovine vWF.
Experiment [13] shares this target. Put plainly: Scatchard analysis of 125I-echicetin binding to fixed platelets, three experiments.
Experiment [14] deals with T2, human platelet membrane glycoprotein Ib (human, UniProt P07359). Put plainly: radioligand competition on platelets; competitor 125I-echicetin.
For experiment [15], the target named is T2, human platelet membrane glycoprotein Ib. Put plainly: unlabeled bovine vWF competing on platelets; competitor 125I-AL-A.
Experiment [16] has the same target. The experiment can be described thus: unlabeled bovine vWF competing on platelets; competitor 125I-AL-B.
The target is the same in experiment [17]. Put plainly: unlabeled bovine vWF competing on platelets; competitor 125I-AL-C.
The target is the same in experiment [18]. The experiment can be described thus: unlabeled bovine vWF competing on platelets; competitor 125I-bovine vWF.
Experiment [19] has the same target. Put plainly: radioligand competition on fixed platelets; competitor 125I-bovine vWF (0.57 µg/ml).

Turning to `O=C(O)CN(CCN(CC(=O)O)CC(=O)O)CC(=O)O` [EDTA], the “inhibition of platelet agglutination induced by AL-A” value (“inhibition … by AL-A” below) in experiment [1] (EDTA 10 raM) is “not inhibited”. Further, the “inhibition of platelet agglutination induced by AL-B” value (“inhibition … by AL-B” below) in [2] (EDTA 10 raM) is listed as “not inhibited”.
As for `CC(=O)N[C@H]1C(O)O[C@H](CO)[C@@H](O)[C@@H]1O` (stereo partly drawn) [N-acetyl glucosamine], in [3], the “effect on the binding of AL-B to platelets” value (“effect on the binding of AL-B” below) is “None of these sugars showed any effect”.
Take `CCN1C(=O)C=CC1=O` [N-ethylmaleimide]: the “inhibition … by AL-A” value in [1] (N-ethylmaleimide 10 raM) is recorded as “not inhibited”. Moreover, the “inhibition … by AL-B” value in [2] (N-ethylmaleimide 10 raM) is reported as “not inhibited”.
For the molecule `CCCCC[C@H](O)/C=C/[C@H]1[C@H](O)CC(=O)[C@@H]1CCCCCCC(=O)O` [PGE1], the “inhibition … by AL-A” value in experiment [1] (PGE1 0.35 μM) is given as “not inhibited”. Also, in experiment [2] (PGE1 0.35 μM), the “inhibition … by AL-B” value is on record as “not inhibited”.
As to `N[C@H]1C(O)O[C@H](CO)[C@H](O)[C@@H]1O` (stereo partly drawn) [galactosamine], in experiment [3], the “effect on the binding of AL-B” value is reported as “None of these sugars showed any effect”.
As to `N[C@H]1C(O)O[C@H](CO)[C@@H](O)[C@@H]1O` (stereo partly drawn) [glucosamine], in experiment [3], the “effect on the binding of AL-B” value is “None of these sugars showed any effect”.
Take `OC[C@H]1O[C@@H](O[C@H]2[C@H](O)[C@@H](O)C(O)O[C@@H]2CO)[C@H](O)[C@@H](O)[C@H]1O` (stereo partly drawn) [lactose]: the “effect on the binding of AL-B” value in experiment [3] is recorded as “None of these sugars showed any effect”.
On the same count and under the same terms, then `N[C@@H]1C(O)O[C@H](CO)[C@@H](O)[C@@H]1O` (stereo partly drawn) [mannosamine], with “None of these sugars showed any effect”.
The same measure, in the same setting: to `CO[C@H]1O[C@H](CO)[C@@H](O)[C@H](O)[C@H]1O` [α-methyl glucoside] belongs “None of these sugars showed any effect”; to `CO[C@H]1O[C@H](CO)[C@@H](O)[C@H](O)[C@@H]1O` [α-methyl mannoside], “None of these sugars showed any effect”.
Broadly, the IC50 is the point on the concentration scale where inhibition reaches its midpoint. Lower therefore signals higher potency. On to alboaggregin C (ligand), for which the percent of total radioactivity added that bound in [4] came to 78%. The IC50 in experiment [5] was 1.7 µg/mL; in [6] it was 1 µg/mL; in [7], 0.3 µg/mL; in [8], 0.2 µg/mL.
By Kd is commonly meant the constant that tells how readily two partners part at equilibrium. echicetin (ligand): in experiment [9], the concentration for 50% inhibition of AL-B-induced agglutination of fixed platelets is 1.05 µg/mL, the concentration for 50% inhibition of botrocetin/human vWF-induced agglutination of fixed platelets amounted to 1.1 µg/mL, the concentration for 50% inhibition of bovine vWF-induced agglutination of fixed platelets came out at 0.4 µg/mL and the concentration for 50% inhibition of bovine vWF-induced agglutination of washed platelets worked out at 0.15 µg/mL. In addition, the binding sites per platelet (binding sites per platelet) in experiment [10] came to 45000. For the same molecule, in [11], the IC50 was more than 0.5 µg/mL. The molecule also yielded an IC50 in [12] of 0.2 µg/mL. The equilibrium dissociation constant (Kd) in experiment [13] came to 30 nM.
In the case of galactose, the “effect on the binding of AL-B” value in experiment [3] is given as “None of these sugars showed any effect”.

B1: bovine von Willebrand factor (ligand)
chain: SLSCRPPMVKVVCPADNPRAEGLECTKTCQNYDLECMSTGCVSGCLPAPGMVRHENRCVALERCPCFHQGREYAPGDRVKVDCNSCVCQDRKWNCTDHVCDASCSALGLAHYFTFDGLKYLFPGECQYVLVQDHCGSNPGTFRVLVGNEGCSVPSLKCRKRITILVEGGEIELFD
In the case of B1, the IC50 in [14] was more than 20 µg/mL; in [15] it was more than 10 µg/mL; in experiment [16], more than 10 µg/mL; in experiment [17], more than 10 µg/mL; in experiment [18] it was 2.1 µg/mL; in experiment [19] it was approximately 10 µg/mL.
